± gives the standard deviation of the averaged measurements.
Columns and labels:
hTERT-HMEC = assay: percentage of EdU-negative (G0-arrested) nuclei per well, 72 h; higher = more G0 arrest; conditions: reference: sequence is the full UniProt precursor, the tested protein was the secreted form or ectodomain
MCF7 = assay: as above; conditions: reference: sequence is the full UniProt precursor, the tested protein was the secreted form or ectodomain
[1] = protein concentration 0.02225 µM
[2] = protein concentration 0.2225 µM
[3] = protein concentration 0.03125 µM
[4] = protein concentration 0.3125 µM
[5] = protein concentration 0.024875 µM
[6] = protein concentration 0.24875 µM
[7] = protein concentration 0.00775 µM
[8] = protein concentration 0.0775 µM
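Further: secreted proteins added to cultured cells, EdU pulse at the end, nuclei found by Hoechst imaging, EdU status from nuclear versus surrounding ring intensity ratio, PBS as neutral control.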

Q: For “MWQIVFFTLSCDLVLAAAYNNFRKSMDSIGKKQYQVQHGSCSYTFLLPEMDNCRSSSSPYVSNAVQRDAPLEYDDSVQRLQVLENIMENNTQWLMKLENYIQDNMKKEMVEIQQNAVQNQTAVMIEIGTNLLNQTAEQTRKLTDVEAQVLNQTTRLELQLLEHSLSTNKLEKQILDQTSEINKLQDKNSFLEKKVLAMEDKHIIQLQSIKEEKDQLQVLVSKQNSIIEELEKKIVTATVNNSVLQKQQHDLMETVNNLLTMMSTSNSAKDPTVAKEEQISFRDCAEVFKSGHTTNGIYTLTFPNSTEEIKAYCDMEAGGGGWTIIQRREDGSVDFQRTWKEYKVGFGNPSGEYWLGNEFVSQLTNQQRYVLKIHLKDWEGNEAYSLYEHFYLSSEELNYRIHLKGLTGTAGKISSISQPGNDFSTKDGDNDKCICKCSQMLTGGWWFDACGPSNLNGMYYPQRQNTNKFNGIKWYYWKGSGYSLKATTMMIRPADF”, which “percentage of EdU-negative” value (hTERT-HMEC; [1]) is on record?
A: The value was 4.54 ± 0.087%.

Q: What about the “percentage of EdU-negative” value (hTERT-HMEC; [2]) of the same sequence?
A: The value was 7.44 ± 0.6%.

Q: What about the “percentage of EdU-negative” value (MCF7; [1]) of the same sequence?
A: Its value is 27.2 ± 1.1%.

Q: And the “percentage of EdU-negative” value (MCF7; [2])?
A: Its value is 27.32 ± 0.1%.

Q: For “MTPHRLLPPLLLLLALLLAASPGGALARCPGCGQGVQAGCPGGCVEEEDGGSPAEGCAEAEGCLRREGQECGVYTPNCAPGLQCHPPKDDEAPLRALLLGRGRCLPARAPAVAEENPKESKPQAGTARPQDVNRRDQQRNPGTSTTPSQPNSAGVQDTEMGPCRRHLDSVLQQLQTEVYRGAQTLYVPNCDHRGFYRKRQCRSSQGQRRGPCWCVDRMGKSLPGSPDGNGSSSCPTGSSG”, which “percentage of EdU-negative” value (hTERT-HMEC; [3]) is on record?
A: Its value is 4.84 ± 0.44%.

Q: What about the “percentage of EdU-negative” value (hTERT-HMEC; [4]) of the same sequence?
A: The value was 5.17 ± 1%.

Q: What about the “percentage of EdU-negative” value (MCF7; [3]) of the same sequence?
A: The value was 25 ± 1.6%.

Q: And the “percentage of EdU-negative” value (MCF7; [4])?
A: Its value is 25.79 ± 0.037%.

Q: For “MRHLGAFLFLLGVLGALTEMCEIPEMDSHLVEKLGQHLLPWMDRLSLEHLNPSIYVGLRLSSLQAGTKEDLYLHSLKLGYQQCLLGSAFSEDDGDCQGKPSMGQLALYLLALRANCEFVRGHKGDRLVSQLKWFLEDEKRAIGHDHKGHPHTSYYQYGLGILALCLHQKRVHDSVVDKLLYAVEPFHQGHHSVDTAAMAGLAFTCLKRSNFNPGRRQRITMAIRTVREEILKAQTPEGHFGNVYSTPLALQFLMTSPMRGAELGTACLKARVALLASLQDGAFQNALMISQLLPVLNHKTYIDLIFPDCLAPRVMLEPAAETIPQTQEIISVTLQVLSLLPPYRQSISVLAGSTVEDVLKKAHELGGFTYETQASLSGPYLTSVMGKAAGEREFWQLLRDPNTPLLQGIADYRPKDGETIELRLVSW”, which “percentage of EdU-negative” value (hTERT-HMEC; protein concentration 0.012 µM) is on record?
A: Its value is 5.24 ± 0.2%.

Q: What about the “percentage of EdU-negative” value (hTERT-HMEC; protein concentration 0.12 µM) of the same sequence?
A: The value was 6.61 ± 0.18%.

Q: And the “percentage of EdU-negative” value (MCF7; protein concentration 0.012 µM)?
A: Its value is 27 ± 1.9%.

Q: What about the “percentage of EdU-negative” value (MCF7; protein concentration 0.12 µM) of the same sequence?
A: The value was 25.5 ± 1.3%.

Q: For “MCRIAGALRTLLPLLAALLQASVEASGEIALCKTGFPEDVYSAVLSKDVHEGQPLLNVKFSNCNGKRKVQYESSEPADFKVDEDGMVYAVRSFPLSSEHAKFLIYAQDKETQEKWQVAVKLSLKPTLTEESVKESAEVEEIVFPRQFSKHSGHLQRQKRDWVIPPINLPENSRGPFPQELVRIRSDRDKNLSLRYSVTGPGADQPPTGIFIINPISGQLSVTKPLDREQIARFHLRAHAVDINGNQVENPIDIVINVIDMNDNRPEFLHQVWNGTVPEGSKPGTYVMTVTAIDADDPNALNGMLRYRIVSQAPSTPSPNMFTINNETGDIITVAAGLDREKVQQYTLIIQATDMEGNPTYGLSNTATAVITVTDVNDNPPEFTAMTFYGEVPENRVDIIVANLTVTDKDQPHTPAWNAVYRISGGDPTGRFAIQTDPNSNDGLVTVVKPIDFETNRMFVLTVAAENQVPLAKGIQHPPQSTATVSVTVIDVNENPYFAPNPKIIRQEEGLHAGTMLTTFTAQDPDRYMQQNIRYTKLSDPANWLKIDPVNGQITTIAVLDRESPNVKNNIYNATFLASDNGIPPMSGTGTLQIYLLDINDNAPQVLPQEAETCETPDPNSINITALDYDIDPNAGPFAFDLPLSPVTIKRNWTITRLNGDFAQLNLKIKFLEAGIYEVPIIITDSGNPPKSNISILRVKVCQCDSNGDCTDVDRIVGAGLGTGAIIAILLCIIILLILVLMFVVWMKRRDKERQAKQLLIDPEDDVRDNILKYDEEGGGEEDQDYDLSQLQQPDTVEPDAIKPVGIRRMDERPIHAEPQYPVRSAAPHPGDIGDFINEGLKAADNDPTAPPYDSLLVFDYEGSGSTAGSLSSLNSSSSGGEQDYDYLNDWGPRFKKLADMYGGGDD”, which “percentage of EdU-negative” value (hTERT-HMEC; [5]) is on record?
A: Its value is 4.75 ± 0.064%.

Q: And the “percentage of EdU-negative” value (hTERT-HMEC; [6])?
A: The value was 9.56 ± 1.9%.

Q: What about the “percentage of EdU-negative” value (MCF7; [5]) of the same sequence?
A: Its value is 27 ± 2.4%.

Q: And the “percentage of EdU-negative” value (MCF7; [6])?
A: The value was 28 ± 1.6%.

Q: Which results are given for “MRRPAAVPLLLLLCFGSQRAKAATACGRPRMLNRMVGGQDTQEGEWPWQVSIQRNGSHFCGGSLIAEQWVLTAAHCFRNTSETSLYQVLLGARQLVQPGPHAMYARVRQVESNPLYQGTASSADVALVELEAPVPFTNYILPVCLPDPSVIFETGMNCWVTGWGSPSEEDLLPEPRILQKLAVPIIDTPKCNLLYSKDTEFGYQPKTIKNDMLCAGFEEGKKDACKGDSGGPLVCLVGQSWLQAGVISWGEGCARQNRPGVYIRVTAHHNWIHRIIPKLQFQPARLGGQK [Q9BQR3]”?
A: percentage of EdU-negative (hTERT-HMEC; [7]): 4.44 ± 0.22%; percentage of EdU-negative (hTERT-HMEC; [8]): 6.65 ± 0.73%; percentage of EdU-negative (MCF7; [7]): 25.18 ± 0.16%; percentage of EdU-negative (MCF7; [8]): 26.7 ± 2.6%

From the supplement of paper PMC11316812
